Source: patent US20100278838A1, “EPHA2 MONOCLONAL ANTIBODIES AND METHODS OF USE THEREOF” (MEDIMMUNE, LLC, priority 2002, published 2010)
“Also recorded” adds a separate entry of the source.

Key:
[1] = target: T1, EphA2-Fc (Homo sapiens, UniProt P29317); assay: Competitive ELISA: inhibition of labeled EA2 binding to EphA2-Fc; conditions: unlabeled antibody, increasing concentrations; FIG. 1
T1 construct: consisted of the extracellular domain of human EphA2 linked to human immunoglobulin
Protocol: The ability of labeled EA2 monoclonal antibody to bind EphA2-Fc was assayed by competitive ELISA in presence of either unlabeled monoclonal antibodies EA2 or Eph099B-208.261. Ratios of unlabeled to labeled antibody used in the assay are indicated on the x-axis. EA2 is indicated by diamonds and Eph099B-208.261 is indicated by squares.
Monoclonal antibodies against the extracellular domain of EphA2 were generated using the fusion protein EphA2-Fc. This fusion protein consisted of the extracellular domain of human EphA2 linked to human immunoglobulin to facilitate secretion of the fusion protein.
Supernatants from bulk culture hybridomas were screened for immunoreactivity against EphA2 (Table 6, column 4) using standard molecular biological techniques (e.g., ELISA immunoassay). Supernatants were further screened for the ability to inhibit an EphA2 monoclonal antibody (EA2; ATCC deposit no. PTA-4380; see co-pending U.S. patent application Ser. No. 10/436,783, entitled “EphA2 Agonistic Monoclonal Antibodies and Methods of Use Thereof' filed May 12, 2003) from binding to EphA2. Briefly, the ability of labeled EA2 to bind EphA2-Fc was assayed by competitive ELISA in presence of either unlabeled EA2 or unlabeled Eph099B-208.261 (FIG. 1). […] Additionally, many of the other antibodies could inhibit EA2 binding to EphA2 as well (Table 6, column 3).

[2] = system: EphA2; assay: EphA2 degradation / protein level in MDA-MB-231 cells (western blot); format: cell-based; conditions: MDA-MB-231 monolayers, single dose 5 μg/ml, 37° C.
Protocol: Monolayers of MDA-MB-231 cells were incubated in the presence of a single dose of 5 μg/ml (A, C) Eph099B-208.261 or (B, D) EA2 for the indicated time at 37° C. Cell lysates were then resolved by SDS-PAGE and subjected to western blot analysis with an EphA2-specific antibody (A, B). The membranes were stripped and re-probed with a β-catenin-specific antibody as a loading control (C, D).
Monolayers of MDA-MB-231 cells were incubated in the presence of a single dose of 5 μg/ml Eph099B-233.152 at 37° C. Cell lysates were then immunoprecipitated with D7 (an EphA2-specific antibody), resolved by SDS-PAGE and subjected to western blot analysis with (A) a phosphotyrosine-specific antibody or (B) an EphA2-specific antibody.
Monolayers of MDA-MB-231 cells were incubated in the presence of EphA2 agonistic antibodies at 37° C. Cell lysates were then resolved by SDS-PAGE and subjected to western blot analysis with an EphA2-specific antibody (D7). […] Some membranes were stripped and re-probed with a β-catenin-specific antibody as a loading control (FIGS. 3C-3D). […] Decreased EphA2 expression is due, in part, to deceased mRNA expression levels in response to EphA2 protein degradation caused by agonistic antibody binding (data not shown).
Western blot analyses and immunoprecipitations were performed as described previously (Zantek et al., 1999, Cell Growth Diff. 10:629-38, which is incorporated by reference in its entirety). Briefly, detergent extracts of cell monolayers were extracted in Tris-buffered saline containing 1% Triton X-100 (Sigma, St. Louis, Mo.). After measuring protein concentrations (BioRad, Hercules, Calif.), 1.5 mg of cell lysate was immunoprecipitated, resolved by SDS-PAGE and transferred to nitrocellulose (PROTRAN™, Schleicher and Schuell, Keene, N.H.). Antibody binding was detected by enhanced chemiluminescence (Pierce, Rockford, Ill.) and autoradiography (Kodak X-OMAT; Rochester, N.Y.).

[3] = target: T2, immobilized EphA2-Fc (Homo sapiens, UniProt P29317); assay: BIACORE surface plasmon resonance kinetic analysis (Koff); format: binding; conditions: FIG. 15
T2 construct: consisted of the extracellular domain of human EphA2 linked to human immunoglobulin
Description: FIG. 15: Kinetic analysis of EphA2 monoclonal antibodies. BIACORE™ (surface plasmon resonance-based) assays were used to assay the kinetics of EphA2 monoclonal antibody binding to immobilized EphA2-Fc. Eph099B-208.261 is indicated by a solid line, Eph099B-233.152 is indicated by a dotted line, EA2 is indicated by a dashed line, and the negative control is indicated by squares.
The surface plasmon resonance-based BIACORE™ assay was used to measure the Koff rates of the monoclonal antibodies of the invention. IgG present in the hybridoma supernatant was used for measurement.
EphA2-Fc was immobilize to a surface on a CM5 sensorchip using a standard amine (70 μl of a 1:1 mix of NHS/EDC) coupling chemistry. Briefly, a 400 nM solution of EphA2-Fc in 10 mM NaOAc, pH4, was then injected over the activated surface to a density of 1000-1100 RU's. Unused reactive esters were subsequently “capped” with a 70 μl injection of 1M Et-NH2. Similarly, an activated and “capped” control surface was prepared on the same sensor chip without protein to serve as a reference surface.
A 250 μl injection of each of the EphA2 hybridoma supernatants was made over both the EphA2-Fc and control surfaces, and the binding responses were recorded. These supernatants were used undiluted. Following each injection, at least 10 min. of dissociation phase data was collected. […]

[4] = system: cancer cell colonies already formed in soft agar; assay: Elimination of cancer cell colonies already formed in soft agar; format: cell-based; conditions: antibodies added on third day; data not shown
Protocol: The ability of the antibodies of the invention to inhibit cancer cell formation in soft agar was assayed as described in Zelinski et al. (2001, Cancer Res. 61:2301-6). Briefly, cells were suspended in soft agar for 7 days at 37° C. in the presence of purified antibody or control solution (PBS). Antibodies were administered at the time of suspension in both bottom and top agar solutions. Colony formation was scored microscopically using an Olympus CK-3 inverted phase-contrast microscope outfitted with a 40× objective. Clusters containing at least three cells were scored as a positive.
The ability of the antibodies of the invention to eliminate cancer cell colonies already formed in soft agar was assayed. Assay methods were similar to those described above except that antibodies were not added to the cancer cells until the third day of growth in soft agar.

Sequence of EphA2 (P29317 24-976): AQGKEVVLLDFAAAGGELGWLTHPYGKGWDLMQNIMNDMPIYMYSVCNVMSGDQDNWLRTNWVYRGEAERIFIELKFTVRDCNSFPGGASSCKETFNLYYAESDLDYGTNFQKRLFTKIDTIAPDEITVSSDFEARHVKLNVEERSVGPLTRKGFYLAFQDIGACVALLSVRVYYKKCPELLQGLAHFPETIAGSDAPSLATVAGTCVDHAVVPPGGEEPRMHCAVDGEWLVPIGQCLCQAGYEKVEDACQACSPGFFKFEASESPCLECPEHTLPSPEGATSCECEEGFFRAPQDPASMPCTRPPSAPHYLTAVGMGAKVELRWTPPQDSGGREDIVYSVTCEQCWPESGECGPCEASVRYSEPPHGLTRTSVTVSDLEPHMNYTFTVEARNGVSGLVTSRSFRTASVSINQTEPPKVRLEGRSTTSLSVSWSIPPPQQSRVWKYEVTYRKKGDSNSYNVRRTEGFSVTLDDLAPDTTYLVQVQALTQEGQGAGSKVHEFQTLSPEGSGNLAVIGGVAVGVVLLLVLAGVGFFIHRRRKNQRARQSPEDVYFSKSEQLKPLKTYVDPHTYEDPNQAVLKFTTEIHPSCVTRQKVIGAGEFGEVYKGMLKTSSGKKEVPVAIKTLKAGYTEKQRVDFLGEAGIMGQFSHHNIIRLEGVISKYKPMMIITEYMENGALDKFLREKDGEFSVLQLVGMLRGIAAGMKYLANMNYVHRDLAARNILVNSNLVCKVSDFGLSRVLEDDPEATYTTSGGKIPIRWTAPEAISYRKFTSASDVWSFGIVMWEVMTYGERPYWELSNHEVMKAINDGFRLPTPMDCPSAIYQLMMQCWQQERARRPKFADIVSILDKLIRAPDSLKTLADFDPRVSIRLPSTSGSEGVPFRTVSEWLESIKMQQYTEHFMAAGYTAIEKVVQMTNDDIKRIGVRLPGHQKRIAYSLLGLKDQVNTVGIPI
T1 sequence (P29317 24-537 limits assumed): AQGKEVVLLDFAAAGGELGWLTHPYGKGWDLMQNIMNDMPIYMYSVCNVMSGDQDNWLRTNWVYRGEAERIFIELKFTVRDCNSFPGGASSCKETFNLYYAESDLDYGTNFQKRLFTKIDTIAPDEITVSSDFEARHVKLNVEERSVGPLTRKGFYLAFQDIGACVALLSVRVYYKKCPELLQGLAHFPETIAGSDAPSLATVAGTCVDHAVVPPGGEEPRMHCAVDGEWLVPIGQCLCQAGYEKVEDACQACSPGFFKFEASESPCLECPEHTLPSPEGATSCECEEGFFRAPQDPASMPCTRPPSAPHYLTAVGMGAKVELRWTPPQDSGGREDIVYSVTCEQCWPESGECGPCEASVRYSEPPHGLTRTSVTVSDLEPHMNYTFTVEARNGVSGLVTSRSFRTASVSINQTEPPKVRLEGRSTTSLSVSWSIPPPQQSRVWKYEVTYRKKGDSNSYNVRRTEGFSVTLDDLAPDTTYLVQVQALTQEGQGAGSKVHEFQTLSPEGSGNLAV
T2 sequence (P29317 24-537 limits assumed): as above

Molecule | Competition with labeled EA2 for binding to EphA2-Fc [1] | EphA2 protein level [2] | Koff rate compared with EA2 [3] | Effect on cancer cell colonies already growing in soft agar [4]
EA2: EphA2 agonistic monoclonal antibody; ATCC deposit no. PTA-4380; co-pending application Ser. No. 10/436,783; VL SEQ ID NO:33, VH SEQ ID NO:37 (antibody, listed as Homo Sapiens, V domains shown) VH: DVKLVESGGGLVKPGGSLKLSCAASGFTFSSYTMSWVRQTPEKRLEWVATISSGGTYTYYPDSVKGRFTISRDNAKNTLYLQMSSLKSEDTAMYYCTREAIFTYWGQGTLVTVSA VL: DIKMTQSPSSMYASLGERVTITCKASQDINNYLSWFQQKPGKSPKTLIYRANRLVDGVPSRFSGSGSGQDYSLTISSLEYEDMGIYYCLKYDEFPYTFGGGTKLEIK | could decrease the amount of labeled EA2 binding to EphA2-Fc | decreased EphA2 protein level |  | 
Eph099B-208.261: EphA2 monoclonal antibody; hybridoma ATCC PTA-4573; VL SEQ ID NO:1, VH SEQ ID NO:5 (antibody, listed as Homo sapiens, V domains shown) VH: QVQLQQPGAELVKPGASVKLSCKASGYTFTSYWMHWVKQRPGQGLEWIGMIHPNSGSTNYNEKFKSKATLTVDKSSSTAYMRLSSLTSEDSAVYYCARGGNMVGGGYWGQGTTLTVSS VL: QIVLTQSPALMSASPGEKVTMTCSASSSVSYMYWYQQKPRSSPKPWIYLTTNLASGVPARFSGSGSGTSYSLTISSMEAEDAATYYCQQWSSNPFTFGSGTKLEIR | could decrease the amount of labeled EA2 binding to EphA2-Fc; also recorded: can compete with EA2 for binding to EphA2 | decreased EphA2 protein level | slower Koff rates than EA2 | can slow or reduce cancer cell colony growth in soft agar
Eph099B-233.152: EphA2 monoclonal antibody; hybridoma ATCC PTA-5194; VL SEQ ID NO:17, VH SEQ ID NO:21 (antibody, listed as Homo sapiens, V domains shown) VH: EVKLVESGGGLVQPGGSLSLSCAASGFTFTDYSMNWVRQPPGKALEWLGFIRNKANDYTTEYSASVKGRFTISRDNSQSILYLQMNALRAEDSATYYCVRYPRYHAMDSWGQGTSVTVSS VL: DIVLTQSPATLSVTPGDSVNLSCRASQSISNNLHWYQQKSHESPRLLIKYVFQSISGIPSRFSGSGSGTDFTLSINSVETEDFGMYFCQQSNSWPLTFGAGTKLELK |  | decreased EphA2 protein level; also recorded: EphA2 degradation | slower Koff rates than EA2 | can slow or reduce cancer cell colony growth in soft agar
